In US20060269536A1 (UNIVERSITE DE LAUSANNE, published 2006):

T1: human neutrophil elastase (HNE) (human, UniProt P08246 30-247, limits assumed)
T1 sequence (looked up): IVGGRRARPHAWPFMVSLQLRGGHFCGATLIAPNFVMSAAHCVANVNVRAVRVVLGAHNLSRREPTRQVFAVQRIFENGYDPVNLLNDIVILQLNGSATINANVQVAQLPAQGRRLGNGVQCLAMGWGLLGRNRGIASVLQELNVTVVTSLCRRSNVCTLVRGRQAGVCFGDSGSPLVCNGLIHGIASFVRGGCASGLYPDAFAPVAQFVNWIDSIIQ


Legend:
[1] = molecular target: T2, Human chymotrypsin (Chtr) (human, UniProt P17538 19-263); assay: residual protease activity against [I]o/[E]o, linear regression, x intercept
T2 construct: Bought
Experimental: The stoichiometry of inhibition (SI) values were determined for the inhibition of rACTWT and its variants with hK2 and different other enzymes. An initial test was made with a molar excess of rACT (100 fold) over hK2, PSA, hK1, chymotrypsin (Chtr), plasma kallikrein (PK), urokinase (uPA) and human neutrophile elastase (HNE) enzymes. The reaction was carried out for 30 min at 25° C. (90 min at 37° C. for PSA) in reaction buffer (50 mM Tris pH 7.5, 150 mM NaCl, 0.05% Triton X-100, 0.01% BSA) and residual enzyme activity was measured by adding fluorescent substrates (Z-Phe-Arg-AMC for hK1, hK2 and PK, Suc-Ala-Ala-Pro-Phe-AMC for Chtr, Z-Gly-Gly-Arg-AMC for uPA, MeOSuc-Ala-Ala-Pro-Val-AMC for HNE, and CFP-TFRSA-YFP for PSA). Activity of enzyme in presence of inhibitors was compared to uninhibited reaction. For reactions where an inhibition was observed, SI was determined by incubating different concentrations of recombinant serpins. […]
In order to determine the SI values of all the recombinant variants, Applicants have incubated hK2 (5 nM) with different concentrations (6.25-500 nM) of rACT_{8.20} (x), rACT_{6.2} (□), rACT_{8.3} (Δ), rACT_{6.7} (⋄), rACT_{6.1} ( ), rACT_{5.18} (∘), rACTWT (+), at 25° C. for 30 min in reaction buffer. […] The SI was determined using linear regression analysis to extrapolate the I/E ratio (i.e. the x intercept).

human kallikrein hK1 = human kallikrein hK1 (human, UniProt P06870 25-262); assay: cell-based or functional assay
[2] = molecular target: human glandular kallikrein hK2 (human, UniProt P20151 25-261); assay: cell-based or functional assay
[3] = molecular target: T1, human neutrophil elastase (HNE); assay: cell-based or functional assay
[4] = molecular target: human plasma kallikrein (PK) (human, UniProt P03952 20-638); assay: cell-based or functional assay
[5] = molecular target: urokinase plasminogen activator (uPA) (UniProt P00749 21-431, limits assumed); assay: cell-based or functional assay
[6] = molecular target: T2, Human chymotrypsin (Chtr); assay: cell-based or functional assay
hK3 (PSA) [7] = molecular target: T3, hK3 (PSA) (human, UniProt P07288 25-261); assay: cell-based or functional assay
hK3 (PSA) [8] = molecular target: T3, hK3 (PSA); assay: Western blot of hK3-ACT complex, anti-His antibody (FIG. 6B)
Experimental: For each variants of ACT, 1 μg of inhibitor was incubated with 100 ng of either hK2 or hK3 during 1 hour at 37° C. under physiological conditions.

T2 sequence (P17538 19-263): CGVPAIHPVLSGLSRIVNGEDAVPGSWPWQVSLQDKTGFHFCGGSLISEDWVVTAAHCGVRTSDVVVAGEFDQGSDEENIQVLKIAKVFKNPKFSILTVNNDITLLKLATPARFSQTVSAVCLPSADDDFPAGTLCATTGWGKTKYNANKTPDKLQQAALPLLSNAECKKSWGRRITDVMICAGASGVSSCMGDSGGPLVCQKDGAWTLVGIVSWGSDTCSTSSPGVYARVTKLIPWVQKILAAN
Chain of human plasma kallikrein (PK) (P03952 20-638 limits assumed): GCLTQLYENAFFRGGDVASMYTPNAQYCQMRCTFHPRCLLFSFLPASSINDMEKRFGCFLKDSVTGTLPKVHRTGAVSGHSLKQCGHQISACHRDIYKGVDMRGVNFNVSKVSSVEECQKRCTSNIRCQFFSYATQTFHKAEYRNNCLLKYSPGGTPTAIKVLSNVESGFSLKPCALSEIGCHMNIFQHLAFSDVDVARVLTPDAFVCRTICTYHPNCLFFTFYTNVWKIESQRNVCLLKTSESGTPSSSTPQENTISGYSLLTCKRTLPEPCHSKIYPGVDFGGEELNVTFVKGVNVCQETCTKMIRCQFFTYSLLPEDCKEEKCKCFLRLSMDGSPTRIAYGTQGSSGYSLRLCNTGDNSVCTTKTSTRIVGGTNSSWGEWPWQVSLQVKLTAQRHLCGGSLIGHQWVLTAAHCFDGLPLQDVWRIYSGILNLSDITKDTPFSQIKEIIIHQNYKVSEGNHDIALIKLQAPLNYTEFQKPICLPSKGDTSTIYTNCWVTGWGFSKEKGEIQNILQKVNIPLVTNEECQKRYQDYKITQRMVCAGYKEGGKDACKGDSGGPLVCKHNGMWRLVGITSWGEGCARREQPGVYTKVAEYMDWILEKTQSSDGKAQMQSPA
Chain of human kallikrein hK1 (P06870 25-262): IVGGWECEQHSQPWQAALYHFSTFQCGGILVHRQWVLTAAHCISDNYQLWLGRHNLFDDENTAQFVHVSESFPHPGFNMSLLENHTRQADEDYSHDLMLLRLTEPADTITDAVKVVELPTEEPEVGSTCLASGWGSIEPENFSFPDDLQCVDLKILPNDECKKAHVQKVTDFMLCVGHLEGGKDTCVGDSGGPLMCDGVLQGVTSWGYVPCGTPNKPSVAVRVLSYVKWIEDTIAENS
T3 sequence (P07288 25-261 limits assumed): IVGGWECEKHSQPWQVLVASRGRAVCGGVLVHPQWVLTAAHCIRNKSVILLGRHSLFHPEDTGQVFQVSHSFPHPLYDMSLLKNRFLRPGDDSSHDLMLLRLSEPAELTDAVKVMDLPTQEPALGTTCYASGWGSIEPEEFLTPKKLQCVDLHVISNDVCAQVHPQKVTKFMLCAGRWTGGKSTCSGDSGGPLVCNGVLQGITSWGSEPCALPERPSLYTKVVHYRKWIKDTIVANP

Row | Binder | SI (stoichiometry of inhibition) [1] | Inhibition % (residual enzyme activity, fluorescent substrate) (human kallikrein hK1) [%] | Inhibition % (residual enzyme activity, fluorescent substrate) [2] [%] | Inhibition % (residual enzyme activity, fluorescent substrate) [3] [%] | Inhibition % (residual enzyme activity, fluorescent substrate) [4] [%] | Inhibition % (residual enzyme activity, fluorescent substrate) [5] [%] | Inhibition % (residual enzyme activity, fluorescent substrate) [6] [%] | Inhibition % (residual enzyme activity, CFP-TFRSA-YFP substrate, 90 min at 37°) (hK3 (PSA) [7]) [%] | binding result (hK3 (PSA) [8])
1 | rACT8.20 (designed binder) MRGSHHHHHHSRHPNSPLDEENLTQENQDRGTHVDLGLASANVDFAFSLYKQLVLKAPDKNVIFSPLSISTALAFLSLGAHNTTLTEILKGLKFNLTETSEAEIHQSFQHLLRTLNQSSDELQLSMGNAMFVKEQLSLLDRFTEDAKRLYGSEAFATDFQDSAAAKKLINDYVKNGTRGKITDLIKDLDSQTMMVLVNYIFFKAKWEMPFDPQDTHQSRFYLSKKKWVMVPMMSLHHLTIPYFRDEELSCTVVELKYTGNASALFILPDQDKMEEVEAMLLPETLKRWRDSLEFREIGELYLPKFSISRDYNLNDILLQLGIEEAFTSKADLSGITGARNLAVSQVVHKAVLDVFEEGTEASAATAVKITLRSRAVETRTIVRFNRPFLMIIVPTDTQNIFFMSKVTNPKQA | – | 0 | 95 | 30 | 54 | 0 | 66 | – | –
2 | rACT6.1 (designed binder, N-terminal His tag, E. coli TG1; also called MD61; MD 61) MRGSHHHHHHSRHPNSPLDEENLTQENQDRGTHVDLGLASANVDFAFSLYKQLVLKAPDKNVIFSPLSISTALAFLSLGAHNTTLTEILKGLKFNLTETSEAEIHQSFQHLLRTLNQSSDELQLSMGNAMFVKEQLSLLDRFTEDAKRLYGSEAFATDFQDSAAAKKLINDYVKNGTRGKITDLIKDLDSQTMMVLVNYIFFKAKWEMPFDPQDTHQSRFYLSKKKWVMVPMMSLHHLTIPYFRDEELSCTVVELKYTGNASALFILPDQDKMEEVEAMLLPETLKRWRDSLEFREIGELYLPKFSISRDYNLNDILLQLGIEEAFTSKADLSGITGARNLAVSQVVHKAVLDVFEEGTEASAATAVKIMTRSNAVETRTIVRFNRPFLMIIVPTDTQNIFFMSKVTNPKQA | – | 0 | 100 | 60 | 100 | 0 | 0 | 0 | no binding
3 | ACT5.18 (designed binder) MRGSHHHHHHSRHPNSPLDEENLTQENQDRGTHVDLGLASANVDFAFSLYKQLVLKAPDKNVIFSPLSISTALAFLSLGAHNTTLTEILKGLKFNLTETSEAEIHQSFQHLLRTLNQSSDELQLSMGNAMFVKEQLSLLDRFTEDAKRLYGSEAFATDFQDSAAAKKLINDYVKNGTRGKITDLIKDLDSQTMMVLVNYIFFKAKWEMPFDPQDTHQSRFYLSKKKWVMVPMMSLHHLTIPYFRDEELSCTVVELKYTGNASALFILPDQDKMEEVEAMLLPETLKRWRDSLEFREIGELYLPKFSISRDYNLNDILLQLGIEEAFTSKADLSGITGARNLAVSQVVHKAVLDVFEEGTEASAATAVKITERVSPVETRTIVRFNRPFLMIIVPTDTQNIFFMSKVTNPKQA | – | 0 | 73 | 0 | 0 | 0 | 0 | 0 | –
4 | rACT6.2 (designed binder, Recombinant human α1-antichymotrypsin variant, RSL P3-P'3 = TRRSID; N-terminal His tag, E. coli TG1; also called MD62; MD 62) MRGSHHHHHHSRHPNSPLDEENLTQENQDRGTHVDLGLASANVDFAFSLYKQLVLKAPDKNVIFSPLSISTALAFLSLGAHNTTLTEILKGLKFNLTETSEAEIHQSFQHLLRTLNQSSDELQLSMGNAMFVKEQLSLLDRFTEDAKRLYGSEAFATDFQDSAAAKKLINDYVKNGTRGKITDLIKDLDSQTMMVLVNYIFFKAKWEMPFDPQDTHQSRFYLSKKKWVMVPMMSLHHLTIPYFRDEELSCTVVELKYTGNASALFILPDQDKMEEVEAMLLPETLKRWRDSLEFREIGELYLPKFSISRDYNLNDILLQLGIEEAFTSKADLSGITGARNLAVSQVVHKAVLDVFEEGTEASAATAVKITRRSIDVETRTIVRFNRPFLMIIVPTDTQNIFFMSKVTNPKQA | – | 0 | 100 | 0 | 100 | 0 | 0 | 0 | no binding

Second part, the binder after the results:

Row | SI (stoichiometry of inhibition) [1] | Inhibition % (residual enzyme activity, fluorescent substrate) (human kallikrein hK1) [%] | Inhibition % (residual enzyme activity, fluorescent substrate) [2] [%] | Inhibition % (residual enzyme activity, fluorescent substrate) [3] [%] | Inhibition % (residual enzyme activity, fluorescent substrate) [4] [%] | Inhibition % (residual enzyme activity, fluorescent substrate) [5] [%] | Inhibition % (residual enzyme activity, fluorescent substrate) [6] [%] | Inhibition % (residual enzyme activity, CFP-TFRSA-YFP substrate, 90 min at 37°) (hK3 (PSA) [7]) [%] | binding result (hK3 (PSA) [8]) | Binder
5 | 2 | 0 | 0 | 15 | 0 | 0 | 100 | 80 | – | rACTWT (recombinant wild type α1-antichymotrypsin) (other, human, Serpin; Expressed in E. coli TG1 from pQE-9 with an N-terminal His tag; also called ACTWT (LL↓SA); wild type rACT) HHHHHHNSPLDEENLTQENQDRGTHVDLGLASANVDFAFSLYKQLVLKAPDKNVIFSPLSISTALAFLSLGAHNTTLTEILKGLKFNLTETSEAEIHQSFQHLLRTLNQSSDELQLSMGNAMFVKEQLSLLDRFTEDAKRLYGSEAFATDFQDSAAAKKLINDYVKNGTRGKITDLIKDLDSQTMMVLVNYIFFKAKWEMPFDPQDTHQSRFYLSKKKWVMVPMMSLHHLTIPYFRDEELSCTVVELKYTGNASALFILPDQDKMEEVEAMLLPETLKRWRDSLEFREIGELYLPKFSISRDYNLNDILLQLGIEEAFTSKADLSGITGARNLAVSQVVHKAVLDVFEEGTEASAATAVKITLLSALVETRTIVRFNRPFLMIIVPTDTQNIFFMSKVTNPKQA
6 | – | 0 | 100 | 0 | 36 | 0 | 0 | 0 | – | rACT6.7 (designed binder) MRGSHHHHHHSRHPNSPLDEENLTQENQDRGTHVDLGLASANVDFAFSLYKQLVLKAPDKNVIFSPLSISTALAFLSLGAHNTTLTEILKGLKFNLTETSEAEIHQSFQHLLRTLNQSSDELQLSMGNAMFVKEQLSLLDRFTEDAKRLYGSEAFATDFQDSAAAKKLINDYVKNGTRGKITDLIKDLDSQTMMVLVNYIFFKAKWEMPFDPQDTHQSRFYLSKKKWVMVPMMSLHHLTIPYFRDEELSCTVVELKYTGNASALFILPDQDKMEEVEAMLLPETLKRWRDSLEFREIGELYLPKFSISRDYNLNDILLQLGIEEAFTSKADLSGITGARNLAVSQVVHKAVLDVFEEGTEASAATAVKIKLRTTLVETRTIVRFNRPFLMIIVPTDTQNIFFMSKVTNPKQA
7 | – | 0 | 100 | 0 | 0 | 0 | 0 | 0 | – | rACT8.3 (designed binder) MRGSHHHHHHSRHPNSPLDEENLTQENQDRGTHVDLGLASANVDFAFSLYKQLVLKAPDKNVIFSPLSISTALAFLSLGAHNTTLTEILKGLKFNLTETSEAEIHQSFQHLLRTLNQSSDELQLSMGNAMFVKEQLSLLDRFTEDAKRLYGSEAFATDFQDSAAAKKLINDYVKNGTRGKITDLIKDLDSQTMMVLVNYIFFKAKWEMPFDPQDTHQSRFYLSKKKWVMVPMMSLHHLTIPYFRDEELSCTVVELKYTGNASALFILPDQDKMEEVEAMLLPETLKRWRDSLEFREIGELYLPKFSISRDYNLNDILLQLGIEEAFTSKADLSGITGARNLAVSQVVHKAVLDVFEEGTEASAATAVKIRGRSELVETRTIVRFNRPFLMIIVPTDTQNIFFMSKVTNPKQA
